Test results: patent US20240000914A1

Target: adeno-associated virus 2 (AAV2) vector capsid (AAV2-nLuc) (adeno-associated virus 2) (UniProt P03135)
Test: cell-based or functional assay

Chain of UniProt P03135 (P03135 whole entry, the tested form may be a part): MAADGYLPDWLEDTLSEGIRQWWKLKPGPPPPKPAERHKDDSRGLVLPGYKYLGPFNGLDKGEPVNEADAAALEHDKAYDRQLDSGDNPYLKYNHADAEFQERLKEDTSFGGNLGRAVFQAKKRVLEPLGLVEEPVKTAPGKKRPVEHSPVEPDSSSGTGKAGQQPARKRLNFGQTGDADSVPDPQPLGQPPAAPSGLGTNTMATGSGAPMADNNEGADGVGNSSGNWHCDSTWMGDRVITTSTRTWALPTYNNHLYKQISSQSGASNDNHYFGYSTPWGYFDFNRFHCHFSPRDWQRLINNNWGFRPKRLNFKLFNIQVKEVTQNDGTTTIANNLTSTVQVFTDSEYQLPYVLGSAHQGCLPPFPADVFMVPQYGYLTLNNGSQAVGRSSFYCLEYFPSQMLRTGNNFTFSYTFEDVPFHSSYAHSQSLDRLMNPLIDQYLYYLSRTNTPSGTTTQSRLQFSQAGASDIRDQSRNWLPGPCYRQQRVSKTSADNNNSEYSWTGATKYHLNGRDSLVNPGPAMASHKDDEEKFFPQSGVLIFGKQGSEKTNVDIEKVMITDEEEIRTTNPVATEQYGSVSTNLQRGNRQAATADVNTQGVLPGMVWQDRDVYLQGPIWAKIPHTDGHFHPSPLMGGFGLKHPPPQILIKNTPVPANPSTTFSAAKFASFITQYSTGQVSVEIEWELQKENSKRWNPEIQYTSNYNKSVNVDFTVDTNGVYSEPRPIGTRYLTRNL

Substance “human intravenous immunoglobulin (IVIG) (antibody)” has a 50% geometric mean neutralizing reciprocal titer (50% GMT) (50% GMT (reciprocal titer)) of 1280 and a neutralization of AAV2-nLuc transduction (reciprocal dilution) of 1250.
